Experimental data published in US20230183713A1, “SITE-SPECIFIC RECOMBINASES FOR EFFICIENT AND SPECIFIC GENOME EDITING” (TECHNISCHE UNIVERSITÄt DRESDEN, published 2023).

T1: Cre recombinase monomer with Q311R mutation
T1 chain: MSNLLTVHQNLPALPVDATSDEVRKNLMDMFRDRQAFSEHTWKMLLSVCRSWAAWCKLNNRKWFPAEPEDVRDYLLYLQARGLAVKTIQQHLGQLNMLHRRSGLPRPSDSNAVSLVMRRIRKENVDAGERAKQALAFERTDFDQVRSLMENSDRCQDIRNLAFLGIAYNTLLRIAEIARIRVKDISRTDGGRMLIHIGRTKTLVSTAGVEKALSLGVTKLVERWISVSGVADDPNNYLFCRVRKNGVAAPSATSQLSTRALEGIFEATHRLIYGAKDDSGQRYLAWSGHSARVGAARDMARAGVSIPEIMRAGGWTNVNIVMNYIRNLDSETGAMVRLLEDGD


Biological target: T1, Cre recombinase monomer with Q311R …

| Protein | Median dimer activity (recombination on loxP) |
| --- | --- |
| Cre recombinase monomer with K201G mutation (protein) MSNLLTVHQNLPALPVDATSDEVRKNLMDMFRDRQAFSEHTWKMLLSVCRSWAAWCKLNNRKWFPAEPEDVRDYLLYLQARGLAVKTIQQHLGQLNMLHRRSGLPRPSDSNAVSLVMRRIRKENVDAGERAKQALAFERTDFDQVRSLMENSDRCQDIRNLAFLGIAYNTLLRIAEIARIRVKDISRTDGGRMLIHIGRTGTLVSTAGVEKALSLGVTKLVERWISVSGVADDPNNYLFCRVRKNGVAAPSATSQLSTRALEGIFEATHRLIYGAKDDSGQRYLAWSGHSARVGAARDMARAGVSIPEIMQAGGWTNVNIVMNYIRNLDSETGAMVRLLEDGD | 90% |
| Cre recombinase monomer with H289D mutation (protein) MSNLLTVHQNLPALPVDATSDEVRKNLMDMFRDRQAFSEHTWKMLLSVCRSWAAWCKLNNRKWFPAEPEDVRDYLLYLQARGLAVKTIQQHLGQLNMLHRRSGLPRPSDSNAVSLVMRRIRKENVDAGERAKQALAFERTDFDQVRSLMENSDRCQDIRNLAFLGIAYNTLLRIAEIARIRVKDISRTDGGRMLIHIGRTKTLVSTAGVEKALSLGVTKLVERWISVSGVADDPNNYLFCRVRKNGVAAPSATSQLSTRALEGIFEATHRLIYGAKDDSGQRYLAWSGDSARVGAARDMARAGVSIPEIMQAGGWTNVNIVMNYIRNLDSETGAMVRLLEDGD | 97% |
| Cre recombinase monomer with K201H mutation (protein) MSNLLTVHQNLPALPVDATSDEVRKNLMDMFRDRQAFSEHTWKMLLSVCRSWAAWCKLNNRKWFPAEPEDVRDYLLYLQARGLAVKTIQQHLGQLNMLHRRSGLPRPSDSNAVSLVMRRIRKENVDAGERAKQALAFERTDFDQVRSLMENSDRCQDIRNLAFLGIAYNTLLRIAEIARIRVKDISRTDGGRMLIHIGRTHTLVSTAGVEKALSLGVTKLVERWISVSGVADDPNNYLFCRVRKNGVAAPSATSQLSTRALEGIFEATHRLIYGAKDDSGQRYLAWSGHSARVGAARDMARAGVSIPEIMQAGGWTNVNIVMNYIRNLDSETGAMVRLLEDGD | 94% |
| Cre recombinase monomer with K201R mutation (protein) MSNLLTVHQNLPALPVDATSDEVRKNLMDMFRDRQAFSEHTWKMLLSVCRSWAAWCKLNNRKWFPAEPEDVRDYLLYLQARGLAVKTIQQHLGQLNMLHRRSGLPRPSDSNAVSLVMRRIRKENVDAGERAKQALAFERTDFDQVRSLMENSDRCQDIRNLAFLGIAYNTLLRIAEIARIRVKDISRTDGGRMLIHIGRTRTLVSTAGVEKALSLGVTKLVERWISVSGVADDPNNYLFCRVRKNGVAAPSATSQLSTRALEGIFEATHRLIYGAKDDSGQRYLAWSGHSARVGAARDMARAGVSIPEIMQAGGWTNVNIVMNYIRNLDSETGAMVRLLEDGD | 98% |
| Cre recombinase monomer with K201I mutation (protein) MSNLLTVHQNLPALPVDATSDEVRKNLMDMFRDRQAFSEHTWKMLLSVCRSWAAWCKLNNRKWFPAEPEDVRDYLLYLQARGLAVKTIQQHLGQLNMLHRRSGLPRPSDSNAVSLVMRRIRKENVDAGERAKQALAFERTDFDQVRSLMENSDRCQDIRNLAFLGIAYNTLLRIAEIARIRVKDISRTDGGRMLIHIGRTITLVSTAGVEKALSLGVTKLVERWISVSGVADDPNNYLFCRVRKNGVAAPSATSQLSTRALEGIFEATHRLIYGAKDDSGQRYLAWSGHSARVGAARDMARAGVSIPEIMQAGGWTNVNIVMNYIRNLDSETGAMVRLLEDGD | 86% |
| Cre recombinase monomer with R292A mutation (protein) MSNLLTVHQNLPALPVDATSDEVRKNLMDMFRDRQAFSEHTWKMLLSVCRSWAAWCKLNNRKWFPAEPEDVRDYLLYLQARGLAVKTIQQHLGQLNMLHRRSGLPRPSDSNAVSLVMRRIRKENVDAGERAKQALAFERTDFDQVRSLMENSDRCQDIRNLAFLGIAYNTLLRIAEIARIRVKDISRTDGGRMLIHIGRTKTLVSTAGVEKALSLGVTKLVERWISVSGVADDPNNYLFCRVRKNGVAAPSATSQLSTRALEGIFEATHRLIYGAKDDSGQRYLAWSGHSAAVGAARDMARAGVSIPEIMQAGGWTNVNIVMNYIRNLDSETGAMVRLLEDGD | 96% |
| Cre recombinase monomer with K201T mutation (protein) MSNLLTVHQNLPALPVDATSDEVRKNLMDMFRDRQAFSEHTWKMLLSVCRSWAAWCKLNNRKWFPAEPEDVRDYLLYLQARGLAVKTIQQHLGQLNMLHRRSGLPRPSDSNAVSLVMRRIRKENVDAGERAKQALAFERTDFDQVRSLMENSDRCQDIRNLAFLGIAYNTLLRIAEIARIRVKDISRTDGGRMLIHIGRTTTLVSTAGVEKALSLGVTKLVERWISVSGVADDPNNYLFCRVRKNGVAAPSATSQLSTRALEGIFEATHRLIYGAKDDSGQRYLAWSGHSARVGAARDMARAGVSIPEIMQAGGWTNVNIVMNYIRNLDSETGAMVRLLEDGD | 94% |
| Cre recombinase monomer with H289I mutation (protein) MSNLLTVHQNLPALPVDATSDEVRKNLMDMFRDRQAFSEHTWKMLLSVCRSWAAWCKLNNRKWFPAEPEDVRDYLLYLQARGLAVKTIQQHLGQLNMLHRRSGLPRPSDSNAVSLVMRRIRKENVDAGERAKQALAFERTDFDQVRSLMENSDRCQDIRNLAFLGIAYNTLLRIAEIARIRVKDISRTDGGRMLIHIGRTKTLVSTAGVEKALSLGVTKLVERWISVSGVADDPNNYLFCRVRKNGVAAPSATSQLSTRALEGIFEATHRLIYGAKDDSGQRYLAWSGISARVGAARDMARAGVSIPEIMQAGGWTNVNIVMNYIRNLDSETGAMVRLLEDGD | 75% |
| Cre recombinase monomer with H289R mutation (protein) MSNLLTVHQNLPALPVDATSDEVRKNLMDMFRDRQAFSEHTWKMLLSVCRSWAAWCKLNNRKWFPAEPEDVRDYLLYLQARGLAVKTIQQHLGQLNMLHRRSGLPRPSDSNAVSLVMRRIRKENVDAGERAKQALAFERTDFDQVRSLMENSDRCQDIRNLAFLGIAYNTLLRIAEIARIRVKDISRTDGGRMLIHIGRTKTLVSTAGVEKALSLGVTKLVERWISVSGVADDPNNYLFCRVRKNGVAAPSATSQLSTRALEGIFEATHRLIYGAKDDSGQRYLAWSGRSARVGAARDMARAGVSIPEIMQAGGWTNVNIVMNYIRNLDSETGAMVRLLEDGD | 79% |
| Cre recombinase monomer with R292C mutation (protein) MSNLLTVHQNLPALPVDATSDEVRKNLMDMFRDRQAFSEHTWKMLLSVCRSWAAWCKLNNRKWFPAEPEDVRDYLLYLQARGLAVKTIQQHLGQLNMLHRRSGLPRPSDSNAVSLVMRRIRKENVDAGERAKQALAFERTDFDQVRSLMENSDRCQDIRNLAFLGIAYNTLLRIAEIARIRVKDISRTDGGRMLIHIGRTKTLVSTAGVEKALSLGVTKLVERWISVSGVADDPNNYLFCRVRKNGVAAPSATSQLSTRALEGIFEATHRLIYGAKDDSGQRYLAWSGHSACVGAARDMARAGVSIPEIMQAGGWTNVNIVMNYIRNLDSETGAMVRLLEDGD | 93% |
| Cre recombinase monomer with K201S mutation (protein) MSNLLTVHQNLPALPVDATSDEVRKNLMDMFRDRQAFSEHTWKMLLSVCRSWAAWCKLNNRKWFPAEPEDVRDYLLYLQARGLAVKTIQQHLGQLNMLHRRSGLPRPSDSNAVSLVMRRIRKENVDAGERAKQALAFERTDFDQVRSLMENSDRCQDIRNLAFLGIAYNTLLRIAEIARIRVKDISRTDGGRMLIHIGRTSTLVSTAGVEKALSLGVTKLVERWISVSGVADDPNNYLFCRVRKNGVAAPSATSQLSTRALEGIFEATHRLIYGAKDDSGQRYLAWSGHSARVGAARDMARAGVSIPEIMQAGGWTNVNIVMNYIRNLDSETGAMVRLLEDGD | 95% |
